This is an account of results in US20090098111.

The subject of series [1] is GST-XtopBP1 (972-1279) ΔRQLQ.
In series [2] the test system is GST-XtopBP1 (972-1279) ΔWDDP.
Series [3] concerns GST-XtopBP1 (972-1279)-W1138R.
Series [4] relates to His6-XtopBP1 (full-length).
The test system of series [5] is His6-XtopBP1-W1138R (full-length).

Chain of Xatr (endogenous Xenopus ATR in egg extracts) (chain, as listed by the source): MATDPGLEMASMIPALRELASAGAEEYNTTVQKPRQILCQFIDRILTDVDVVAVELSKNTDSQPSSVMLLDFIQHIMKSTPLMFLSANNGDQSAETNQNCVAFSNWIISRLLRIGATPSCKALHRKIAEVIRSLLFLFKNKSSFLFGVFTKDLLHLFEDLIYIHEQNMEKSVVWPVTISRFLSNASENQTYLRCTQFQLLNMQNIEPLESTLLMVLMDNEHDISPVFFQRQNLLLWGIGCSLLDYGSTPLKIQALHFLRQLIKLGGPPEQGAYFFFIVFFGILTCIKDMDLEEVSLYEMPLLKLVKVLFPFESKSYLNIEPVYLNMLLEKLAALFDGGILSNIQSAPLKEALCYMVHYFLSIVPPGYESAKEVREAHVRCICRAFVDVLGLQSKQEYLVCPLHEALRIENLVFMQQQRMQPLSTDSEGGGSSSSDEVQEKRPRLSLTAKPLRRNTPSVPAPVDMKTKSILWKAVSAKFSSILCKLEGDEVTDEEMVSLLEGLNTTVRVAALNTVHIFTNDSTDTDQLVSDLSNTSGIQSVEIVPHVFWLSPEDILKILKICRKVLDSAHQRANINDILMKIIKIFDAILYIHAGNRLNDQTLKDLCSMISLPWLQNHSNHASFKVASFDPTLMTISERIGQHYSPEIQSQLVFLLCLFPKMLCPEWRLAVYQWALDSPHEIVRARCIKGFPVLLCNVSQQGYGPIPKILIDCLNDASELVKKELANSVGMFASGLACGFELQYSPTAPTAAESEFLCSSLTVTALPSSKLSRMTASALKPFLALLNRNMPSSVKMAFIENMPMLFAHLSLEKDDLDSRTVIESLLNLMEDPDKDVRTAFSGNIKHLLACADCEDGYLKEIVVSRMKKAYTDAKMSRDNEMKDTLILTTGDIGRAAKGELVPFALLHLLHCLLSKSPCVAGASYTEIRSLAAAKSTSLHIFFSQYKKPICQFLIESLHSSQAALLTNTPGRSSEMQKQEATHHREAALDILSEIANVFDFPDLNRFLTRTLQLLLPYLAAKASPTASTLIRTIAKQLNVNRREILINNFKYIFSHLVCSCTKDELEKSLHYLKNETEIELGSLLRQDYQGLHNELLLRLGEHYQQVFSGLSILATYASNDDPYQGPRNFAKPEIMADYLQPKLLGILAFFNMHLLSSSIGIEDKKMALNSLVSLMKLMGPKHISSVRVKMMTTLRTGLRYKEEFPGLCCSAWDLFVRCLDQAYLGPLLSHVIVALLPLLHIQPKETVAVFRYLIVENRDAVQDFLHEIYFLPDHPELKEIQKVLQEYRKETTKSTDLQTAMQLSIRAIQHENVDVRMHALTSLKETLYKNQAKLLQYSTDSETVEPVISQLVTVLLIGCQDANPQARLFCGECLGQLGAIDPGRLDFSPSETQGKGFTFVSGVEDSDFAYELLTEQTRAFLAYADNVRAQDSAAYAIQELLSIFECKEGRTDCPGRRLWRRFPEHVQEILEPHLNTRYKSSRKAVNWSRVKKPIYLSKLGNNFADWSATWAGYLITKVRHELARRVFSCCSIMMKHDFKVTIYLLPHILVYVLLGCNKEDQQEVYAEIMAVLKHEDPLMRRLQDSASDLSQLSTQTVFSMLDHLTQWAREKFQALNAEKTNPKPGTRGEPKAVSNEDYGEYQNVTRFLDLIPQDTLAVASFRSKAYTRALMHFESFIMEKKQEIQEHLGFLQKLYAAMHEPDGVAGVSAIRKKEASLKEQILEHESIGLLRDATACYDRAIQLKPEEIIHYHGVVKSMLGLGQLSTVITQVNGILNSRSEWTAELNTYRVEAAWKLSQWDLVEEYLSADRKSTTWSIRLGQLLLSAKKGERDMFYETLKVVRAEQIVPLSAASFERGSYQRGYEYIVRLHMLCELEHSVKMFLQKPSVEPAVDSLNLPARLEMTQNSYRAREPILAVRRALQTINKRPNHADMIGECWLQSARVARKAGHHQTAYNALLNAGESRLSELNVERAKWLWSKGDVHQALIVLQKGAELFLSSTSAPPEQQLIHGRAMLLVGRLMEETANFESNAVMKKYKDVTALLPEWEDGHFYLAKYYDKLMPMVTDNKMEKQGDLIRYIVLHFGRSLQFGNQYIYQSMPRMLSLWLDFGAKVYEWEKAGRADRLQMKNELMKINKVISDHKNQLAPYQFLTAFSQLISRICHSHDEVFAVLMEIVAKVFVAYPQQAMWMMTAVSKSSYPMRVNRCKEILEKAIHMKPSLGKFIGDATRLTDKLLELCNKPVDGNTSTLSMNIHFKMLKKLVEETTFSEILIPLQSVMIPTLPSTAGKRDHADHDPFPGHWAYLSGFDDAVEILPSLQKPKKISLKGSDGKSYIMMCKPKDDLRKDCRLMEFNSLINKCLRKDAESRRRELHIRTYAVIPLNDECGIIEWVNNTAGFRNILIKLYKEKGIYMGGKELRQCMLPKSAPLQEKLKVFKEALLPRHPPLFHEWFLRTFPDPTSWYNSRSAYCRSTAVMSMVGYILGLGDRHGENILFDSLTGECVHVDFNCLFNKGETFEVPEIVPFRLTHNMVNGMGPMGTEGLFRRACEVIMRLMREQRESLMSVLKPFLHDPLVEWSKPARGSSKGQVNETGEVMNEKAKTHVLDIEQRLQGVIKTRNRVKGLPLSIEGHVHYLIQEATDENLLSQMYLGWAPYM
Chain of His6-XtopBP1 (full-length) (chain, as listed by the source): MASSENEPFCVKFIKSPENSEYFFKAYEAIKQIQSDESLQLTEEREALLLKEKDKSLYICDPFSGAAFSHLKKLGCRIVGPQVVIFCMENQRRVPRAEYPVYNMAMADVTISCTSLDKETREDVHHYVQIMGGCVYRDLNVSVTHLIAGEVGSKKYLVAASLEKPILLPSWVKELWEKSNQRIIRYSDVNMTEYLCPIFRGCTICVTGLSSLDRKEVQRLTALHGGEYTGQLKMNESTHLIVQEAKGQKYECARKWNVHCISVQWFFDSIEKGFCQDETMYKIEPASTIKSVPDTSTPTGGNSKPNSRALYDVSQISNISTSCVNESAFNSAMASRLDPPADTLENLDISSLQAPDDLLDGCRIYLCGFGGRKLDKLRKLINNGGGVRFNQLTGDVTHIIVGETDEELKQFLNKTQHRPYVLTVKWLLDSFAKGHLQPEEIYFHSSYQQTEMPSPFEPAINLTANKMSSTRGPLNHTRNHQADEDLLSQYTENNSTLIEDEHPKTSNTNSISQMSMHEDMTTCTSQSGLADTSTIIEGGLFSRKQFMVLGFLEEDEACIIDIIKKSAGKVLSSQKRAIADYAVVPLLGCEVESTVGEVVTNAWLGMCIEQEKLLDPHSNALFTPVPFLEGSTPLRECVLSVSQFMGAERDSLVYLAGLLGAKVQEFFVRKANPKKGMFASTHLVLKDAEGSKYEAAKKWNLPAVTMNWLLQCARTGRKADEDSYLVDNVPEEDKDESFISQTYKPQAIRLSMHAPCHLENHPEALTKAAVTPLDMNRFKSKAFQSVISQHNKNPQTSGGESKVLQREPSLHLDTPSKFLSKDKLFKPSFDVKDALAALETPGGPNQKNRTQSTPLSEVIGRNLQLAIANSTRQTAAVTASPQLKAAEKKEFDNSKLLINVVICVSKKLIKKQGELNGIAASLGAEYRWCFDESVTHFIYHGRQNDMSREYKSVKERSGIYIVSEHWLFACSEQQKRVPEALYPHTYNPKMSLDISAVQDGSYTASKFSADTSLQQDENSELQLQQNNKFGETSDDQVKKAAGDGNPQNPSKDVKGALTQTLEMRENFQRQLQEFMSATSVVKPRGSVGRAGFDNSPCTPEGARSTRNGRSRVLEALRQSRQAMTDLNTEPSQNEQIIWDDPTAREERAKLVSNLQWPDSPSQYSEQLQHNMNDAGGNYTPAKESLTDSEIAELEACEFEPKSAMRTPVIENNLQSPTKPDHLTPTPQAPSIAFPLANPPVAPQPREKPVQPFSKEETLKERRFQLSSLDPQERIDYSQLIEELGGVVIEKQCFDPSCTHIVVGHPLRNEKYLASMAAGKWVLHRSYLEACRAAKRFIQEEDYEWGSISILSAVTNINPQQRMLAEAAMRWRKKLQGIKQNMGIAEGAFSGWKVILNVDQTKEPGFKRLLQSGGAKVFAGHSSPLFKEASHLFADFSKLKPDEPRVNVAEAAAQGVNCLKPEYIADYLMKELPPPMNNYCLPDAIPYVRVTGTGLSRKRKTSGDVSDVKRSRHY
Chain of GST-XtopBP1 (972-1279)-W1138R (chain, as listed by the source W1138R): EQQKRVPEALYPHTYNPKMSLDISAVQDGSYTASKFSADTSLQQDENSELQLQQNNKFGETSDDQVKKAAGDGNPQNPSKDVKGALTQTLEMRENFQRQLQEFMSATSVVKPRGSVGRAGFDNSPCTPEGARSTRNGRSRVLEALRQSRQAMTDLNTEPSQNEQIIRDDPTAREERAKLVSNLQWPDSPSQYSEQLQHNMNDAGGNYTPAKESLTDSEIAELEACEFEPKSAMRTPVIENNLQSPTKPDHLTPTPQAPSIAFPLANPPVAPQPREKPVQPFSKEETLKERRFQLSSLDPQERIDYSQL
Chain of GST-XtopBP1 (972-1279) (chain, as listed by the source): as the sequence (chain, as listed by the source W1138R) above, with R167W counted along it
Chain of GST-XtopBP1 (1197-1513) (chain, as listed by the source): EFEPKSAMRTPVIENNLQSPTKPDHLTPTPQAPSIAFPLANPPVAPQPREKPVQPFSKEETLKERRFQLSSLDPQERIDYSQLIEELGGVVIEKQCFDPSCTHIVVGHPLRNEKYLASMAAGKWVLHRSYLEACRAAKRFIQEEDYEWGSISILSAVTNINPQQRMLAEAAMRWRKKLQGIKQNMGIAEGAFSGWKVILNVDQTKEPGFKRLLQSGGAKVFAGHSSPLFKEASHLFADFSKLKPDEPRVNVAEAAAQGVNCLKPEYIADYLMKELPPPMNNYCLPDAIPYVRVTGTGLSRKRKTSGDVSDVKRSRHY

Consider “Xatr (endogenous Xenopus ATR in egg extracts)”, for which the “phosphorylation of 35S-Xchk1 in egg extracts (electrophoretic mobility)” value in the series with GST-XtopBP1 (1197-1513) is “the GST-XtopBP1 (1197-1513) fragment, which does not activate Xatr, did not induce any phosphorylation of Xchk1 in egg extracts”; in series [1] it was “none of the ΔRQLQ, ΔWDDP, or W1138R mutants of the 972-1279 fragment could induce ectopic activation of Xchk1 in these extracts”; in series [2] it was “none of the ΔRQLQ, ΔWDDP, or W1138R mutants of the 972-1279 fragment could induce ectopic activation of Xchk1 in these extracts”; in series [3], “none of the ΔRQLQ, ΔWDDP, or W1138R mutants of the 972-1279 fragment could induce ectopic activation of Xchk1 in these extracts”; with GST-XtopBP1 (972-1279) it was “the 972-1279 fragment could elicit a very robust phosphorylation of Xchk1”. Also, the “checkpoint-dependent phosphorylation of Xchk1 in XtopBP1-depleted egg extracts with aphidicolin” value in series [4] is reported as “addition of wild-type His6-XtopBP1 to the XtopBP1-depleted extract was able to rescue the phosphorylation of Xchk1 fully”; in series [5] it was “the W1138R mutant could not restore the phosphorylation of Xchk1”.
